Results published in PMC7582164, “The soluble neurexin-1β ectodomain causes calcium influx and augments dendritic outgrowth and synaptic transmission” (Scientific Reports, 2020).
No end group written: not given here.

Key:
[1] = target: Recombinant neuroligin-1 (NL-1) (UniProt Q62765); test: SPR; Biacore 2000; NL-1 immobilised on a CM4 chip by amine coupling (~2800 RU); analyte NX-1β Fc chimera 0.05-0.8 µM or Neurexide 1.25-20 µM; 25 °C; HBS-P (10 mM HEPES pH 7.4, 150 mM NaCl, 0.005% P20) with 3 mM CaCl2; 30 µl/min; 1:1 Langmuir fit
Recombinant neuroligin-1 (NL-1) (UniProt Q62765), sequence (Q62765 46-697): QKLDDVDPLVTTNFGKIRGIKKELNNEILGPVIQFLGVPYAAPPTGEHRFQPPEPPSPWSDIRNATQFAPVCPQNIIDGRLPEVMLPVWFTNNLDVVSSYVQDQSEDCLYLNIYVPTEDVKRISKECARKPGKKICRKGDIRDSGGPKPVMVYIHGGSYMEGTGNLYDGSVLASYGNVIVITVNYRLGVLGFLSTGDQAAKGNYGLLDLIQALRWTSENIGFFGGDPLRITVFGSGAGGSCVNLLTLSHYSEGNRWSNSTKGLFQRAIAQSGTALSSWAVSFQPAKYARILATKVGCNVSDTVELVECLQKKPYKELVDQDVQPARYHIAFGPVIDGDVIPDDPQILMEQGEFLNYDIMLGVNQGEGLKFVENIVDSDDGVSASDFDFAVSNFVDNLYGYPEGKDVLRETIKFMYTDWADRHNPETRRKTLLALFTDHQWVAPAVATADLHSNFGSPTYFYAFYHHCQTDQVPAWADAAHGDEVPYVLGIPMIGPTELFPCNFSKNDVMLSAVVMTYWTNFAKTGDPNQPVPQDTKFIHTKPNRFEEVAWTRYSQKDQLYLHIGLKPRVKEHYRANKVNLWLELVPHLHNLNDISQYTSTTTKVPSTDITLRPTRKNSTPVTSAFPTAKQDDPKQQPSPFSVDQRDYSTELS

[2] = target: T1, Recombinant neuroligin-1 (NL-1) (UniProt Q62765 46-697); test: as above; details: both partners purified
T1 construct: neuroligin-1, recombinant; source: bought: R&D Systems (cat# 4340-NL)
T1 sequence (Q62765 46-697): as above

| Kd [1] | Kd [2] | Molecule |
| --- | --- | --- |
| 32 nM |  | Human neurexin-1β Fc-chimera (NX-1β ectodomain lacking splice site 4) (from UniProt P58400 51-396) (Fc fusion) |
|  | 480 nM | ARPSTRADRA (also: tetramer coupled to a lysine backbone, The peptide was made as a C-terminally amidated monomer, a dimer and a tetramer; also called Neurexin peptide; source: synthetic peptide) |
